Test results: patent US20250027071A1
Read-outs that look alike come from different tables or passages of the source.

Key:
[1] = system: Aβ (1-40) peptide
[2] = system: TGFBIp G623R peptide (23-amino acid peptide from the 4th FAS1 domain of TGFBIp with the substitution G623R)
[3] = target: TGFBIp G623R peptide (23-amino acid peptide from the 4th FAS1 domain of TGFBIp with the substitution G623R); test: cell-based or functional assay
[4] = system: Tau peptide VK26
[5] = target: Aβ (1-40) peptide; test: cell-based or functional assay
[6] = target: TGFBIp G623R peptide (23-amino acid peptide from the 4th FAS1 domain of TGFBIp with the substitution G623R); test: cell-based or functional assay; remark: listed apart in the source

Row | ThT fluorescence intensity relative to the G623R control after 48 h (fibrillation inhibition assay, 10 µM L-PGDS : 50 µM monomeric peptide) [3] | Molecule | ThT disaggregation assay of mature Aβ (1-40) fibrils, 24 h [1] | ThT fluorescence relative to untreated G623R fibrils after 48 h (disaggregation assay, 10 µM L-PGDS : 50 µM fibrils) [2] | further results
1 |  | C65A L-PGDS (C65A single mutant of truncated L-PGDS) | significant (p<0.05) retention of disaggregation activity across all L-PGDS mutants after 24 h of incubation | 70.56%±8.18% (SD) | 
2 | 102% | C65A L-PGDS (C65A single mutant of truncated L-PGDS) (enzyme) |  |  | 
3 |  | RA L-PGDS (K58R+C65A double mutant of truncated L-PGDS) | significant (p<0.05) retention of disaggregation activity across all L-PGDS mutants after 24 h of incubation | 72.78%±20.42% (SD) | fibril length from TEM micrographs after disaggregation treatment [2]: RA-L-PGDS treatment did indeed produce shorter fibrils as opposed to WT L-PGDS; ThT assay of Tau VK26 aggregation (100 µM peptide with 5 µM or 10 µM RA L-PGDS) [4]: RA L-PGDS almost completely inhibited the aggregation of the Tau protein
4 | 51.4% | RA L-PGDS (K58R+C65A double mutant of truncated L-PGDS) (enzyme) |  |  | ThT fluorescence relative to Aβ (1-40) control (inhibitory assay, 24 h) [5]: 96.1%
5 |  | truncated human wild-type Lipocalin-type prostaglandin D synthase (L-PGDS) (enzyme, UniProt P41222 23-190, looked up, C-terminal His6 tag) Prostaglandin-H2 D-isomerase: APEAQVSVQPNFQQDKFLGRWFSAGLASNSSWLREKKAALSMCKSVVAPATDGGLNLTSTFLRKNQCETRTMLLQPAGSLGSYSYRSPHWGSTYSVSVVETDYDQYALLYSQGSKGPGEDFRMATLYSRTQTPRAELKEKFTAFCKAQGFTEDTIVFLPQTDKCMTEQ | significant (p<0.05) retention of disaggregation activity across all L-PGDS mutants after 24 h of incubation | 68.78%±18.20% (SD) | ThT fluorescence intensity relative to the G623R control after 48 h (fibrillation inhibition assay, 10 µM L-PGDS : 50 µM monomeric peptide) [6]: 52.5%
